Results taken from patent CN116284371A (SUZHOU FANGKE BIOTECHNOLOGY CO LTD; SUZHOU INST OF SYSTEMS …, dated 2023).

Target: T1, 重组蛋白MDA5 (MDA5抗原蛋白) (Homo sapiens (Human), UniProt Q9BYX4 1-1025)
T1 construct: Recombinant MDA5 from a synthetic gene in pFastBac1 (EcoRI/XbaI); also called MDA5蛋白
T1 sequence: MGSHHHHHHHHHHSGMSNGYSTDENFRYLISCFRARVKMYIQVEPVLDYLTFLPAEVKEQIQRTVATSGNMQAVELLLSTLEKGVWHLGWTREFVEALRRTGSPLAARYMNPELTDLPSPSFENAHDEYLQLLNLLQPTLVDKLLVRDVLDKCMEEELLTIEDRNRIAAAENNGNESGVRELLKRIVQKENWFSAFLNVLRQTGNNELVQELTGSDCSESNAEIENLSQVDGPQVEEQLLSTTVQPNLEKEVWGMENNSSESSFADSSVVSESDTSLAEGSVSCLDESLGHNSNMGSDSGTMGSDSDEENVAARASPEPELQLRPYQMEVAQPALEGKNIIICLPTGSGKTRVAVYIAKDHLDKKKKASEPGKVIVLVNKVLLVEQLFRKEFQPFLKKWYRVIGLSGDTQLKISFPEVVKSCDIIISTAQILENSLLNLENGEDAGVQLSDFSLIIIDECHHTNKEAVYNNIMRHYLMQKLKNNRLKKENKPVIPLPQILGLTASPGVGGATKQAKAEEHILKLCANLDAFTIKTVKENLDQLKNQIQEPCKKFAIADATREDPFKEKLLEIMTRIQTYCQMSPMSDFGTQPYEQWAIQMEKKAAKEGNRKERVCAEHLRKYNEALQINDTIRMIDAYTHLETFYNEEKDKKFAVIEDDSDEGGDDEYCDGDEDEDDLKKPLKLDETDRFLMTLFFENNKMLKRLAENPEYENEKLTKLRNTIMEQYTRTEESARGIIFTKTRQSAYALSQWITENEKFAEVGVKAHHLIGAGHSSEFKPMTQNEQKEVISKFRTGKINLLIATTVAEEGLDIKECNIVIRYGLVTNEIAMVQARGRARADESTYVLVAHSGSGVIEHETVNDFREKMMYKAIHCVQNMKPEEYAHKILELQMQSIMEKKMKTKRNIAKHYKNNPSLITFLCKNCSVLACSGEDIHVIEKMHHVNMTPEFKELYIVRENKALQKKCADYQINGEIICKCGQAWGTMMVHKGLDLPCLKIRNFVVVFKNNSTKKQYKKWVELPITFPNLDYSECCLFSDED
Test: ELISA, MDA5 coated 4 ug/mL, antibody dilution series, anti-human IgG-HRP

binding result: binds
B1: 76F-MDA5-R2P1-G5抗体 (antibody, human IgG1, kappa, V domains shown)
VH: QVQLVESGGGVVQPGRSLRLSCAASGFTFSSYAMHWVRQAPGKGLEWVAVISYDGSNKYYADSVKGRFTISRDNSKNTLYLQMNSLRAEDTAVYYCARHRRYAFDIWGQGTTVTVSS
VL: QAVLTQPASVSGSPGQSITISCTGTSSDVGGYNYVSWYQQHPGKAPKLMIYDVSKRPSGVSNRFSGSKSGNTASLTISGLQAEDEADYYCSSYVVSYTWVFGGGTKVTVLR
notes: The printed heavy and light chain entries appear to start with a leader peptide
